# Numbered stars: 1 amine (or outer) side, 2 acyl side, 3 side chain; on linkers, the order of the positions; unused ones are H or OH. Bridge positions count the residues as written; N and C are the ends. Side chains are listed from the residue outwards. Ends that are not written are not given here. * marks the point of attachment. C20 diacid = O=C(O)CCCCCCCCCCCCCCCCCCC(=O)*; γGlu = O=C(O)[C@H](CCC(=O)[*:2])N[*:1]; AEEA = NCCOCCOCC(=O)O
# T1: rat calcitonin receptor (rat, UniProt P32214 25-516)
# T1 construct: whole, on cells; Cell membranes of transiently transfected BHK tk'ts 13 cells (Assay VIII); also called rCTR; rCT
# T1 sequence (looked up): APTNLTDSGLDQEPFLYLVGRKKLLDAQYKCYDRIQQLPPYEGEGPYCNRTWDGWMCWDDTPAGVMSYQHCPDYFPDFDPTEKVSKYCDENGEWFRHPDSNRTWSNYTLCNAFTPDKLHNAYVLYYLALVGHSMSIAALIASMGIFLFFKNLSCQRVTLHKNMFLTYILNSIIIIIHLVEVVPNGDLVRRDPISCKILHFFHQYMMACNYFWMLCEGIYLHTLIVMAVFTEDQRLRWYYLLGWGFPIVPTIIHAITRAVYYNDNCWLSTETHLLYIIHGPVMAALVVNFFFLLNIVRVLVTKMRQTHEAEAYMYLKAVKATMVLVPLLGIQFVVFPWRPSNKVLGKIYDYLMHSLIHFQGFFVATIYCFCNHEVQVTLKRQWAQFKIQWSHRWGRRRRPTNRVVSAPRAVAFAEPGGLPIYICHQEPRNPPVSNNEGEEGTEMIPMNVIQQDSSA
# T2: rat amylin receptor (rat calcitonin receptor + rat RAMP 3) (rat, UniProt P32214 25-516; Q9JJ73 23-147)
# T2 construct: whole, on cells; Cell membranes of transiently transfected BHK tk'ts 13 cells (Assay VI); also called rAmylin-R; rat amylin 3(a) receptor
# T2 sequence (looked up) 1: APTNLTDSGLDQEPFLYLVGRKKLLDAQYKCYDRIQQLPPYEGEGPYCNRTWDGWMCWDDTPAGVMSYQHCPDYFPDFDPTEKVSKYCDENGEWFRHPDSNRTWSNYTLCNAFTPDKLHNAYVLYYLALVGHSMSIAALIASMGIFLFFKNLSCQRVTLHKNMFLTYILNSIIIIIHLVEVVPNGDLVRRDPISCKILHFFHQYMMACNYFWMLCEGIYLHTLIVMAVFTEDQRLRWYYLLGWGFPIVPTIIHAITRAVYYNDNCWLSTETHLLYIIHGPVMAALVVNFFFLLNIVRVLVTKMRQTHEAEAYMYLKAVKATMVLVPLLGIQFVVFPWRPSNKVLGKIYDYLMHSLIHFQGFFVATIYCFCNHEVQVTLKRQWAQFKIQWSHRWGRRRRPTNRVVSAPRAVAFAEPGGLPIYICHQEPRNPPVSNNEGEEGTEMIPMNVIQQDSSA
# T2 sequence (looked up) 2: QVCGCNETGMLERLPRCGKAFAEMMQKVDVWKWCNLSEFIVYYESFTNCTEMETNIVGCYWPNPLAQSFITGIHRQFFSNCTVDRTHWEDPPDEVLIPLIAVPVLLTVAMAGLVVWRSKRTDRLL
# T3: human calcitonin receptor (human, UniProt P30988 25-474)
# T3 sequence (looked up): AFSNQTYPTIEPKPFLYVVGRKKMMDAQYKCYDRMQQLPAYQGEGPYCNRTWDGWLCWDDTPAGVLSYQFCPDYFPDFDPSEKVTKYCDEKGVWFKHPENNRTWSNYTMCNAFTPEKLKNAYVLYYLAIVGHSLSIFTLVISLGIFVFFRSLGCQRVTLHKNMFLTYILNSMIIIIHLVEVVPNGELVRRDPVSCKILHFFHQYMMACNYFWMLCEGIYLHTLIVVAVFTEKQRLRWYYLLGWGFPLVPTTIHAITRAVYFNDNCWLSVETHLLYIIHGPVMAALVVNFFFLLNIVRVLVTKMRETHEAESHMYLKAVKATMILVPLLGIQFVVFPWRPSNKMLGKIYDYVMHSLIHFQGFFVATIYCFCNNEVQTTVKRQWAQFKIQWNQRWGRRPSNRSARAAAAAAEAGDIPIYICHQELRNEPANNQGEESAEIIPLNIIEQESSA
# T4: human amylin receptor (amylin 3(a) receptor: human calcitonin receptor coexpressed with RAMP-3) (human, UniProt P30988 25-474; O60896 24-148)
# T4 sequence (looked up) 1: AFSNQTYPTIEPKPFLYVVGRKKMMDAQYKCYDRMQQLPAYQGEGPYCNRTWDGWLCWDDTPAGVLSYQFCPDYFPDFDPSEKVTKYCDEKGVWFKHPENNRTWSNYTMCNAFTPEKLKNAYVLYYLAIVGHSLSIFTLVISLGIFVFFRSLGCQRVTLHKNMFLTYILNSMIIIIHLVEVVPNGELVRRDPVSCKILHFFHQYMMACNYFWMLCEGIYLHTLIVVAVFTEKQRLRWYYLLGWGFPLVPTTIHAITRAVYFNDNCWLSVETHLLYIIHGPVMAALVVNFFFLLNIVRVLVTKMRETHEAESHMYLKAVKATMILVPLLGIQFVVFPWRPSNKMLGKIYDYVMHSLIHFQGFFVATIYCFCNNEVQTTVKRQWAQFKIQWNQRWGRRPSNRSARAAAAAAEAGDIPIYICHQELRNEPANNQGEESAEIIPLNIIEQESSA
# T4 sequence (looked up) 2: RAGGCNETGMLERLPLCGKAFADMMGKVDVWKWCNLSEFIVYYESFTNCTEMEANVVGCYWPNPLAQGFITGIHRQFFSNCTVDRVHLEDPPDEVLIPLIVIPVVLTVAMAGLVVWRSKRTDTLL
# Legend:
# rat calcitonin receptor = biological target: T1, rat calcitonin receptor; assay: SPA competition vs 125I-calcitonin, membranes with rat CTR (Assay VIII)
# [1] = biological target: T2, rat amylin receptor (rat calcitonin …); assay: SPA competition vs 125I-rat amylin, membranes with rat CTR + rat RAMP3 (Assay VI)
# [2] = biological target: T3, human calcitonin receptor; assay: cell-based or functional assay
# [3] = biological target: T4, human amylin receptor (amylin 3(a) …); assay: cell-based or functional assay
Binder,IC50 (rat calcitonin receptor) [nM],IC50 [1] [nM],hCTR funct. EC50 (pM) [2] [pM],hAmylin-R funct. EC50 (pM) [3] [pM],Ratio hCT/hAmylin funct. [2]
"K([AEEA-γGlu-C20 diacid])CNTATCATQRLANFLRHSSPNFGAIPSSTNVGHNTY-NH2 (disulfide 2-7; N-terminus assumed; SMILES CC[C@H](C)[C@H](NC(=O)[C@H](C)NC(=O)CNC(=O)[C@H](Cc1ccccc1)NC(=O)[C@H](CC(N)=O)NC(=O)[C@@H]1CCCN1C(=O)[C@H](CO)NC(=O)[C@H](CO)NC(=O)[C@H](Cc1c[nH]cn1)NC(=O)[C@H](CCCNC(=N)N)NC(=O)[C@H](CC(C)C)NC(=O)[C@H](Cc1ccccc1)NC(=O)[C@H](CC(N)=O)NC(=O)[C@H](C)NC(=O)[C@H](CC(C)C)NC(=O)[C@H](CCCNC(=N)N)NC(=O)[C@H](CCC(N)=O)NC(=O)[C@@H](NC(=O)[C@H](C)NC(=O)[C@@H]1CSSC[C@H](NC(=O)[C@@H](N)CCCCNC(=O)COCCOCCNC(=O)CC[C@H](NC(=O)CCCCCCCCCCCCCCCCCCC(=O)O)C(=O)O)C(=O)N[C@@H](CC(N)=O)C(=O)N[C@@H]([C@@H](C)O)C(=O)N[C@@H](C)C(=O)N[C@@H]([C@@H](C)O)C(=O)N1)[C@@H](C)O)C(=O)N1CCC[C@H]1C(=O)N[C@@H](CO)C(=O)N[C@@H](CO)C(=O)N[C@H](C(=O)N[C@@H](CC(N)=O)C(=O)N[C@H](C(=O)NCC(=O)N[C@@H](Cc1c[nH]cn1)C(=O)N[C@@H](CC(N)=O)C(=O)N[C@H](C(=O)N[C@@H](Cc1ccc(O)cc1)C(N)=O)[C@@H](C)O)C(C)C)[C@@H](C)O, also called compound 76)",–,–,7370,297,–
"K([AEEA-AEEA-γGlu-C20 diacid])CNTATCATQRLANFLRHSSPNFGAIPSSTNVGRNTY-NH2 (disulfide 2-7; N-terminus assumed; SMILES CC[C@H](C)[C@H](NC(=O)[C@H](C)NC(=O)CNC(=O)[C@H](Cc1ccccc1)NC(=O)[C@H](CC(N)=O)NC(=O)[C@@H]1CCCN1C(=O)[C@H](CO)NC(=O)[C@H](CO)NC(=O)[C@H](Cc1c[nH]cn1)NC(=O)[C@H](CCCNC(=N)N)NC(=O)[C@H](CC(C)C)NC(=O)[C@H](Cc1ccccc1)NC(=O)[C@H](CC(N)=O)NC(=O)[C@H](C)NC(=O)[C@H](CC(C)C)NC(=O)[C@H](CCCNC(=N)N)NC(=O)[C@H](CCC(N)=O)NC(=O)[C@@H](NC(=O)[C@H](C)NC(=O)[C@@H]1CSSC[C@H](NC(=O)[C@@H](N)CCCCNC(=O)COCCOCCNC(=O)COCCOCCNC(=O)CC[C@H](NC(=O)CCCCCCCCCCCCCCCCCCC(=O)O)C(=O)O)C(=O)N[C@@H](CC(N)=O)C(=O)N[C@@H]([C@@H](C)O)C(=O)N[C@@H](C)C(=O)N[C@@H]([C@@H](C)O)C(=O)N1)[C@@H](C)O)C(=O)N1CCC[C@H]1C(=O)N[C@@H](CO)C(=O)N[C@@H](CO)C(=O)N[C@H](C(=O)N[C@@H](CC(N)=O)C(=O)N[C@H](C(=O)NCC(=O)N[C@@H](CCCNC(=N)N)C(=O)N[C@@H](CC(N)=O)C(=O)N[C@H](C(=O)N[C@@H](Cc1ccc(O)cc1)C(N)=O)[C@@H](C)O)C(C)C)[C@@H](C)O, also called compound 95)",–,–,21500,651,33
"K([AEEA-AEEA-γGlu-C20 diacid])CNTATCATQRLANFLRHSSPNFGAIPSSTPVGSNTY-NH2 (disulfide 2-7; N-terminus assumed; SMILES CC[C@H](C)[C@H](NC(=O)[C@H](C)NC(=O)CNC(=O)[C@H](Cc1ccccc1)NC(=O)[C@H](CC(N)=O)NC(=O)[C@@H]1CCCN1C(=O)[C@H](CO)NC(=O)[C@H](CO)NC(=O)[C@H](Cc1c[nH]cn1)NC(=O)[C@H](CCCNC(=N)N)NC(=O)[C@H](CC(C)C)NC(=O)[C@H](Cc1ccccc1)NC(=O)[C@H](CC(N)=O)NC(=O)[C@H](C)NC(=O)[C@H](CC(C)C)NC(=O)[C@H](CCCNC(=N)N)NC(=O)[C@H](CCC(N)=O)NC(=O)[C@@H](NC(=O)[C@H](C)NC(=O)[C@@H]1CSSC[C@H](NC(=O)[C@@H](N)CCCCNC(=O)COCCOCCNC(=O)COCCOCCNC(=O)CC[C@H](NC(=O)CCCCCCCCCCCCCCCCCCC(=O)O)C(=O)O)C(=O)N[C@@H](CC(N)=O)C(=O)N[C@@H]([C@@H](C)O)C(=O)N[C@@H](C)C(=O)N[C@@H]([C@@H](C)O)C(=O)N1)[C@@H](C)O)C(=O)N1CCC[C@H]1C(=O)N[C@@H](CO)C(=O)N[C@@H](CO)C(=O)N[C@H](C(=O)N1CCC[C@H]1C(=O)N[C@H](C(=O)NCC(=O)N[C@@H](CO)C(=O)N[C@@H](CC(N)=O)C(=O)N[C@H](C(=O)N[C@@H](Cc1ccc(O)cc1)C(N)=O)[C@@H](C)O)C(C)C)[C@@H](C)O, also called compound 96)",–,–,3800,181,21

# Next, values leading:
IC50 (rat calcitonin receptor) [nM],IC50 [1] [nM],hCTR funct. EC50 (pM) [2] [pM],hAmylin-R funct. EC50 (pM) [3] [pM],Ratio hCT/hAmylin funct. [2],Binder
159,0.335,–,–,–,"K([γGlu-γGlu-C20 diacid])CNTATCATQRLADFLRHSSPNFGAIPSSTNVGSRTY-NH2 (disulfide 2-7; N-terminus assumed; SMILES CC[C@H](C)[C@H](NC(=O)[C@H](C)NC(=O)CNC(=O)[C@H](Cc1ccccc1)NC(=O)[C@H](CC(N)=O)NC(=O)[C@@H]1CCCN1C(=O)[C@H](CO)NC(=O)[C@H](CO)NC(=O)[C@H](Cc1c[nH]cn1)NC(=O)[C@H](CCCNC(=N)N)NC(=O)[C@H](CC(C)C)NC(=O)[C@H](Cc1ccccc1)NC(=O)[C@H](CC(=O)O)NC(=O)[C@H](C)NC(=O)[C@H](CC(C)C)NC(=O)[C@H](CCCNC(=N)N)NC(=O)[C@H](CCC(N)=O)NC(=O)[C@@H](NC(=O)[C@H](C)NC(=O)[C@@H]1CSSC[C@H](NC(=O)[C@@H](N)CCCCNC(=O)CC[C@H](NC(=O)CC[C@H](NC(=O)CCCCCCCCCCCCCCCCCCC(=O)O)C(=O)O)C(=O)O)C(=O)N[C@@H](CC(N)=O)C(=O)N[C@@H]([C@@H](C)O)C(=O)N[C@@H](C)C(=O)N[C@@H]([C@@H](C)O)C(=O)N1)[C@@H](C)O)C(=O)N1CCC[C@H]1C(=O)N[C@@H](CO)C(=O)N[C@@H](CO)C(=O)N[C@H](C(=O)N[C@@H](CC(N)=O)C(=O)N[C@H](C(=O)NCC(=O)N[C@@H](CO)C(=O)N[C@@H](CCCNC(=N)N)C(=O)N[C@H](C(=O)N[C@@H](Cc1ccc(O)cc1)C(N)=O)[C@@H](C)O)C(C)C)[C@@H](C)O, Acylated analogue of human amylin; also called compound 52)"
–,–,1630,84,19.5,"K([AEEA-AEEA-γGlu-C20 diacid])CNTATCATQRLANFLRHSSPNFGAIPSSTNVGPNTY-NH2 (disulfide 2-7; N-terminus assumed; SMILES CC[C@H](C)[C@H](NC(=O)[C@H](C)NC(=O)CNC(=O)[C@H](Cc1ccccc1)NC(=O)[C@H](CC(N)=O)NC(=O)[C@@H]1CCCN1C(=O)[C@H](CO)NC(=O)[C@H](CO)NC(=O)[C@H](Cc1c[nH]cn1)NC(=O)[C@H](CCCNC(=N)N)NC(=O)[C@H](CC(C)C)NC(=O)[C@H](Cc1ccccc1)NC(=O)[C@H](CC(N)=O)NC(=O)[C@H](C)NC(=O)[C@H](CC(C)C)NC(=O)[C@H](CCCNC(=N)N)NC(=O)[C@H](CCC(N)=O)NC(=O)[C@@H](NC(=O)[C@H](C)NC(=O)[C@@H]1CSSC[C@H](NC(=O)[C@@H](N)CCCCNC(=O)COCCOCCNC(=O)COCCOCCNC(=O)CC[C@H](NC(=O)CCCCCCCCCCCCCCCCCCC(=O)O)C(=O)O)C(=O)N[C@@H](CC(N)=O)C(=O)N[C@@H]([C@@H](C)O)C(=O)N[C@@H](C)C(=O)N[C@@H]([C@@H](C)O)C(=O)N1)[C@@H](C)O)C(=O)N1CCC[C@H]1C(=O)N[C@@H](CO)C(=O)N[C@@H](CO)C(=O)N[C@H](C(=O)N[C@@H](CC(N)=O)C(=O)N[C@H](C(=O)NCC(=O)N1CCC[C@H]1C(=O)N[C@@H](CC(N)=O)C(=O)N[C@H](C(=O)N[C@@H](Cc1ccc(O)cc1)C(N)=O)[C@@H](C)O)C(C)C)[C@@H](C)O, also called compound 98)"

# Reference: patent US20140087995A1 (published 2014)
